Measured values: the RNAGym collection of RNA variant scans (doi:10.7554/elife.90254)

B1: OR4K15 (parent)
chain: GUUAACGGUCAUAGGCCAUGGAAACUAGGAGCACCAUUUCGCUGCCAGUGAAGAAAUGAACAAAGAAAAUCUGGGCCAGGCAGGCAUCAAAAGAAAUAGUCUUGCGCUCAACCAGAAAGUCUGUAAUCAUUUUAAGGGUA

Variants of: B1
Assay: self-cleavage, relative activity (ratio to wild type); higher = more cleavage; in vitro, sequencing; the parent is a self-cleaving ribozyme

Variant | self-cleavage
GUUAACGGCCAUAGGCCAUGGAAACUAGGAGCACCAUUUCGCUGCCAGUGAAGAAAUGAACAAAGAAAAUCUGGGCCAGGCAGGCAUCAAAAGAAAUAGUCUAGCGCUCAACCAGAAAGUCUGUAAUCAUUUUAAGGGUA [U9C U103A] | 1.9
GUUAACGGCCAUAGGCCAUGGAAACUAGGAGCACCAUUUCGCUGCCAGUGAAGAAAUGAACAAAGAAAAUCUGGGCCAGGCAGGCAUCAAAAGAAAUAGUCUCGCGCUCAACCAGAAAGUCUGUAAUCAUUUUAAGGGUA [U9C U103C] | 1.13
GUUAACGGCCAUAGGCCAUGGAAACUAGGAGCACCAAUUCGCUGCCAGUGAAGAAAUGAACAAAGAAAAUCUGGGCCAGGCAGGCAUCAAAAGAAAUAGUCUUGCGCUCAACCAGAAAGUCUGUAAUCAUUUUAAGGGUA [U9C U37A] | 2.35
GUUAACGGCCAUAGGCCAUGGAAACUAGGAGCACCAUUUCGCUGCCAGUGAAGAAAUGAACAAAGAAAAUCUGGGCCAGGCAGGCAUUAAAAGAAAUAGUCUUGCGCUCAACCAGAAAGUCUGUAAUCAUUUUAAGGGUA [U9C C88U] | 1.34
GUUAACGGCCAUAGGCCAGGGAAACUAGGAGCACCAUUUCGCUGCCAGUGAAGAAAUGAACAAAGAAAAUCUGGGCCAGGCAGGCAUCAAAAGAAAUAGUCUUGCGCUCAACCAGAAAGUCUGUAAUCAUUUUAAGGGUA [U9C U19G] | 2.03
GUUAACGGCCAUAGGCCAUGGAAACUAGGAGCACCAUUUCGCUGCCAGUGAAGAAAUGAACAAAGAAAAUCUGGGCCAGGCAGGCAUCAAAAGAAAUAGUCUUGCGCUCAACCAGAAAGUCUGUAAUCAUUUUAAAGGUA [U9C G136A] | 2.13
GUUAACGGCCAUAGGCCAUGGAAACUAGGAGCACCAUUUCGCCGCCAGUGAAGAAAUGAACAAAGAAAAUCUGGGCCAGGCAGGCAUCAAAAGAAAUAGUCUUGCGCUCAACCAGAAAGUCUGUAAUCAUUUUAAGGGUA [U9C U43C] | 1.48
GUUAACGGCCAUAGGCCAUGGAAACUAGGAGCACCAUUUCGCUGCCAGUGAAGAAAUGAACAAAGAAAAUCUGGGCCAGGCAGACAUCAAAAGAAAUAGUCUUGCGCUCAACCAGAAAGUCUGUAAUCAUUUUAAGGGUA [U9C G84A] | 1.54
GUUAACGGCCAUAGGCCAUGGAAACUAGUAGCACCAUUUCGCUGCCAGUGAAGAAAUGAACAAAGAAAAUCUGGGCCAGGCAGGCAUCAAAAGAAAUAGUCUUGCGCUCAACCAGAAAGUCUGUAAUCAUUUUAAGGGUA [U9C G29U] | 2.61
GUUAACGGCCAUAGGCCAUGGAAACUAGGAGCACCAUGUCGCUGCCAGUGAAGAAAUGAACAAAGAAAAUCUGGGCCAGGCAGGCAUCAAAAGAAAUAGUCUUGCGCUCAACCAGAAAGUCUGUAAUCAUUUUAAGGGUA [U9C U38G] | 2.11
GUUAACGGCCAUAGGCCAUGGAAACUAGGAGCACCAUUUCGCUGCCAGUGAAGAAAUGAACAAAGAAAAUCUGGGCCAGGCAGGCAUCAAAAGAAAUAGUCUUGCGCCCAACCAGAAAGUCUGUAAUCAUUUUAAGGGUA [U9C U108C] | 0.02
GUUAACGGCCAUAGGCCAUGGAAACUAGGAGCACCAUUUCGCUGCCAGUGAAGAAAUGAACAAAGAAAAUCUGGGCCAGGCAGGCAUCAAAAGAAAUAUUCUUGCGCUCAACCAGAAAGUCUGUAAUCAUUUUAAGGGUA [U9C G99U] | 0.63
GUUAACGGCCAUAGGCCAUGGAAACUAGGAGCACCAUUUCGCUGCCAGUGAAGAAAUGAACAAAGAAAAUCAGGGCCAGGCAGGCAUCAAAAGAAAUAGUCUUGCGCUCAACCAGAAAGUCUGUAAUCAUUUUAAGGGUA [U9C U72A] | 0.43
GUUAACGGCCAUAGGCCAUGGAAACUAGGAGCACCAUUUCGCUGCCAGUGAAGAAAUGAACAAAGAAAAUCUGGGCCAGACAGGCAUCAAAAGAAAUAGUCUUGCGCUCAACCAGAAAGUCUGUAAUCAUUUUAAGGGUA [U9C G80A] | 0.34
GUUAACGGCCAUAGGCCAUGGAAACUAGGAGCACCAUUUCGCUGCCAGUGAAGAAAUGAACAAAGAAAAUCUGGGCCAGGCAGGCAUCAAAAGAAAUAGUCUUGCGCUCAAACAGAAAGUCUGUAAUCAUUUUAAGGGUA [U9C C112A] | 0.03
GUUAACGGCCAUAGGCCAUGGAAACUAGGAGCACCAUUUCGCUGCCAGUGAAGAAAAGAACAAAGAAAAUCUGGGCCAGGCAGGCAUCAAAAGAAAUAGUCUUGCGCUCAACCAGAAAGUCUGUAAUCAUUUUAAGGGUA [U9C U57A] | 1.6
GUUAACGGCCAUAGACCAUGGAAACUAGGAGCACCAUUUCGCUGCCAGUGAAGAAAUGAACAAAGAAAAUCUGGGCCAGGCAGGCAUCAAAAGAAAUAGUCUUGCGCUCAACCAGAAAGUCUGUAAUCAUUUUAAGGGUA [U9C G15A] | 1.47
GUUAACGGCCAUAGGCCAUGGAAACUAGGAGCACCAUUUCGCUGCCAGUGAAGAAAUAAACAAAGAAAAUCUGGGCCAGGCAGGCAUCAAAAGAAAUAGUCUUGCGCUCAACCAGAAAGUCUGUAAUCAUUUUAAGGGUA [U9C G58A] | 1.29
GUUAACGGCCAUAGGCCAUGGAAACUAGGAGCACCAUUUCGCUGCCAGUGAAGAAAUGAACAAAGAAAAUCUGGGCCAGGCAGGCAUCAAAAGAAAUAGCCUUGCGCUCAACCAGAAAGUCUGUAAUCAUUUUAAGGGUA [U9C U100C] | 2.18
GUUAACGGCCAUAGGCCAUGGAAACUAGGAGCACCAUUUCGCUGCCAGUGAAGAAAUGAACAAAGAAAAUCUGGACCAGGCAGGCAUCAAAAGAAAUAGUCUUGCGCUCAACCAGAAAGUCUGUAAUCAUUUUAAGGGUA [U9C G75A] | 0.08
GUUAACGGCCAUAGGCCAUGGAAACUAGGAGCACCAUUUCGCUGCCAGUGAAGAAAUGAACAAAGAAAAUCUGGGCCAGGCAAGCAUCAAAAGAAAUAGUCUUGCGCUCAACCAGAAAGUCUGUAAUCAUUUUAAGGGUA [U9C G83A] | 2.33
